The chains are these.
B1: His6-ARS019-TolA-AVI (designed binder)
chain: His6-LAEAKVLANRELDKYGVSDMYKNVINIAWWVSIVKYPIDCILALLP
modifications: not fully specified (C-terminus); also: His6-TolA-AviTag fusion, not in given chain, biotin on the AviTag (in vivo biotinylated)
notes: ABD-derived variant selected by ribosome display; source: E. coli BL21 (DE3) BirA, purified (Ni-NTA); not shown: His6, N-terminal, kept; TolA spacer protein (305 residues), C-terminal, kept
B2: His6-ARS004-TolA-AVI (designed binder)
chain: His6-LAEAKVLANRELDKYGVSDVYKLINYACPVTWVKWVIDPILAMLP-{TolA-AVI}
modifications: also: biotin on the AviTag (in vivo biotinylated)
notes: ABD-derived variant selected by ribosome display; position 23 is deleted; source: E. coli BL21 (DE3) BirA, purified (Ni-NTA); not shown: His6, N-terminal, kept; TolA spacer protein (305 residues), C-terminal, kept
B3: His6-ARS014-TolA-AVI (designed binder)
chain: His6-LAEAKVLANRELDKYGVSDVYKNLINYAWLVMWVPIDAILALLP-{TolA-AVI}
modifications: also: biotin on the AviTag (in vivo biotinylated)
notes: ABD-derived variant selected by ribosome display; positions 35-36 are deleted; source: E. coli BL21 (DE3) BirA, purified (Ni-NTA); not shown: His6, N-terminal, kept; TolA spacer protein (305 residues), C-terminal, kept
B4: His6-ARS043-TolA-AVI (designed binder)
chain: His6-LAEAKVLANRELDKYGVSDLYKNMINMALWVTGVKWLIDPILATLP
modifications: not fully specified (C-terminus); also: His6-TolA-AviTag fusion, not in given chain, biotin on the AviTag (in vivo biotinylated)
notes: as for B1
B5: His6-ARS012-TolA-AVI (designed binder)
chain: His6-LAEAKVLANRELDKYGVSDVYKLINMALYVTGVKPWIDVILAVLP-{TolA-AVI}
modifications: also: biotin on the AviTag (in vivo biotinylated)
notes: as for B2

Ends that are not written are not given here. TolA = 305-residue helical TolA spacer protein; AVI = AviTag

Here are results for five molecules from paper PMC6213189, “ABD-Derived Protein Blockers of Human IL-17 Receptor A as Non-IgG Alternatives for Modulation of IL-17-Dependent Pro-Inflammatory Axis” (International Journal of Molecular Sciences, 2018).

The experiment has as its target T1, human IL-17RA on the cell surface (human (endogenous in THP-1 and HaCaT), UniProt Q96F46 33-866).
T1 construct: human IL-17 receptor A, endogenous on the surface of human cell lines; Expression on THP-1 was confirmed with an anti-IL-17RA antibody; also called cell-surface IL-17RA; IL-17RA-expressing THP-1 cells; source: endogenous, on THP-1 cells; endogenous, on HaCaT cells
Nature of the experiment: LigandTracer Green Line (real-time binding to cells); adherent HaCaT cells on a dish; biotinylated His6-ARS-TolA-AVI added stepwise (3, 30, 90 nM by the results), then dissociation in fresh medium or PBS (ARS043); one-to-one model, TraceDrawer. Particulars: one partner purified.
Take B1: the Kd (usually a measure of binding affinity in units of concentration) is 0.7 nM.

Take B2: the Kd turned out to be 1.2 nM.

B3 showed a Kd of 2 nM.

In turn, B4 showed a dissociation constant (Kd) of 32 nM.

Regarding B5, binding was characterised by a dissociation constant (Kd) of 35 nM.
